How the values were obtained:
[1] = biological target: human PD-L1 expressed on cells (H441 lung tumor cells; MDA-MB-231 cells; artificial antigen presenting cells) (human) (UniProt Q9NZQ7); test: cell-based or functional assay
TGFβ1 (human) = TGFβ1 (human) (UniProt P01137); test: SPR, binder immobilized by Fc capture, TGFβ1 as analyte, OneStep kinetic analysis on Pioneer FE (Fortebio)
TGFβ2 = TGFβ2 (UniProt P61812); test: SPR, binder immobilized by Fc capture, TGFβ2 as analyte, OneStep kinetic analysis on Pioneer FE (Fortebio)
Sequence of TGFβ2 (P61812 303-414 limits assumed): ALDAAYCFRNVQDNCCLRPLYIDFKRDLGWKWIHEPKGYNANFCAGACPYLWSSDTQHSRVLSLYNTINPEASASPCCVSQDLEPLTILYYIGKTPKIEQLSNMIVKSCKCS

[2] = biological target: PD-L1 (soluble analyte in the SPR assay) (UniProt Q9NZQ7); test: SPR, binder immobilized by Fc capture, PD-L1 as analyte, OneStep kinetic analysis on Pioneer FE (Fortebio)
Sequence of PD-L1 (soluble analyte in the SPR assay) (Q9NZQ7 19-238 limits assumed): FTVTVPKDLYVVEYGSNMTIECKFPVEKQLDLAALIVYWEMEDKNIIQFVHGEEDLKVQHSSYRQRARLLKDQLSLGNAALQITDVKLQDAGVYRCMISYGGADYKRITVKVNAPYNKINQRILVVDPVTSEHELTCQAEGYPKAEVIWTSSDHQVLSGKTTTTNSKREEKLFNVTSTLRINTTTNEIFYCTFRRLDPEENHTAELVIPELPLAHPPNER

[3] = biological target: human PD-L1 expressed on cells (H441 lung tumor cells; MDA-MB-231 cells; artificial antigen presenting cells) (human) (UniProt Q9NZQ7); test: flow cytometry on PD-L1+ H441 cells, APC anti-human IgG Fc detection; the table has no unit, pM is from the graph's axis Concentration(pM)

Sequence of human PD-L1 expressed on cells (H441 lung tumor cells; MDA-MB-231 cells; artificial antigen presenting cells) (human) (Q9NZQ7 19-290): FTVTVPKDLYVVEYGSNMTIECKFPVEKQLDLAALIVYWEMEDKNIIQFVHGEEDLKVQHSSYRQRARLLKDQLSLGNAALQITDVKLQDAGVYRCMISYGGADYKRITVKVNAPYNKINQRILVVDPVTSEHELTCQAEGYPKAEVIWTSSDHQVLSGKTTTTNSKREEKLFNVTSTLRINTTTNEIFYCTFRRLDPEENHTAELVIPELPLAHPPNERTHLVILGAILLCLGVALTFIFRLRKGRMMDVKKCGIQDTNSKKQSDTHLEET
Sequence of TGFβ1 (human) (P01137 279-390 limits assumed): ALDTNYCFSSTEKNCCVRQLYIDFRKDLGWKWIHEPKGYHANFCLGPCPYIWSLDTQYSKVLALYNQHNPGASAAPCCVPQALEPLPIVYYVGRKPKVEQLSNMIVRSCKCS

Q: For “αPDL1/TXM/TGFβRII (N-810A); IL-15N72D:αPDL1/IL-15RαSu/Fc/TGFβRII fusion protein complex (from UniProt P40933 49-162) (Fc fusion)”, which maximal killing, ADCC against PD-L1-positive MDA-MB-231 breast tumor cells [1] is on record?
A: Its maximal killing, ADCC against PD-L1-positive MDA-MB-231 breast tumor cells is 30%.

Q: And the Kd (TGFβ1 (human))?
A: Its Kd is 240 pM.

Q: What about the Kd (TGFβ2) of the same substance?
A: Its Kd is 520 pM.

Q: And the Kd [2]?
A: The Kd was 7600 pM.

Q: And the EC50 [3]?
A: The EC50 was 182 pM.

From patent US20200002425A1
